Values of other authors as cited in paper PMC8073936.

Target: TRF1 (Homo sapiens) (UniProt P54274)
UniProt P54274, sequence (P54274 2-439): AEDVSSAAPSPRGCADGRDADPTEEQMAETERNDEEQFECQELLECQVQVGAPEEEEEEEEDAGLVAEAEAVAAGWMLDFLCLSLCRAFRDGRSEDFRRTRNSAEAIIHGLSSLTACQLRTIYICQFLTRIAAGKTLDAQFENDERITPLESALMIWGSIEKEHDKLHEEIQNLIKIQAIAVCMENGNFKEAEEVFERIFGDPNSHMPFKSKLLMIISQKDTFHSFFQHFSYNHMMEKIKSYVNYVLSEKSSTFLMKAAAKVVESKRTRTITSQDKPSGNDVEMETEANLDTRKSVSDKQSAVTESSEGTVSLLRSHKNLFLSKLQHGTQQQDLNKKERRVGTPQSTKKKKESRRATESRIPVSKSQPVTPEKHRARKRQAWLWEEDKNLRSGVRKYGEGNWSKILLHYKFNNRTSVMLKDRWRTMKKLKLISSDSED

Kd: 0.4 nM
Substance: Ku70/80 (from UniProt P12956)
